In patent US8258099B2, “Pin1-modulating compounds and methods of use thereof” (Max-Planck-Gesellschaft zur Foerderung der Wissenschaften …, priority 2004, dated 2012):
Square brackets hold non-standard residues; d marks the D form. Peptide text beside a SMILES is read from it. * marks the point of attachment. Biotin = O=C1N[C@H]2[C@H](CS[C@H]2CCCCC(=O)*)N1; Phe(4-tBu) = CC(C)(C)c1ccc(C[C@H](N)C(=O)O)cc1; Bip = N[C@@H](Cc1ccc(-c2ccccc2)cc1)C(=O)O; pT = C[C@@H](OP(=O)(O)O)[C@H](N)C(=O)O; 2Nal = N[C@@H](Cc1ccc2ccccc2c1)C(=O)O; Bta = N[C@@H](Cc1csc2ccccc12)C(=O)O; Tic = O=C(O)[C@@H]1Cc2ccccc2CN1; 2Thi = N[C@@H](Cc1cccs1)C(=O)O; Cha = N[C@@H](CC1CCCCC1)C(=O)O; Tle = CC(C)(C)[C@H](N)C(=O)O; NMeA = CN[C@@H](C)C(=O)O

B1: peptide 13 (peptide)
peptide: Ac-K(Biotin)AA[Phe(4-tBu)][pT][Tic][Bta]Q-NH2
SMILES: CC(=O)N[C@@H](CCCCNC(=O)CCCC[C@@H]1SC[C@@H]2NC(=O)N[C@@H]21)C(=O)N[C@@H](C)C(=O)N[C@@H](C)C(=O)N[C@@H](Cc1ccc(C(C)(C)C)cc1)C(=O)N[C@H](C(=O)N1Cc2ccccc2C[C@H]1C(=O)N[C@@H](Cc1csc2ccccc12)C(=O)N[C@@H](CCC(N)=O)C(N)=O)[C@@H](C)OP(=O)(O)O
B2: peptide 14 (peptide)
peptide: Ac-K(Biotin)AA[Cha][pT][Tic][2Nal]Q-NH2
SMILES: CC(=O)N[C@@H](CCCCNC(=O)CCCC[C@@H]1SC[C@@H]2NC(=O)N[C@@H]21)C(=O)N[C@@H](C)C(=O)N[C@@H](C)C(=O)N[C@@H](CC1CCCCC1)C(=O)N[C@H](C(=O)N1Cc2ccccc2C[C@H]1C(=O)N[C@@H](Cc1ccc2ccccc2c1)C(=O)N[C@@H](CCC(N)=O)C(N)=O)[C@@H](C)OP(=O)(O)O
B3: peptide 1 (peptide)
peptide: Ac-K(Biotin)AA[Phe(4-tBu)][pT]P[2Nal]Q-NH2
SMILES: CC(=O)N[C@@H](CCCCNC(=O)CCCC[C@@H]1SC[C@@H]2NC(=O)N[C@@H]21)C(=O)N[C@@H](C)C(=O)N[C@@H](C)C(=O)N[C@@H](Cc1ccc(C(C)(C)C)cc1)C(=O)N[C@H](C(=O)N1CCC[C@H]1C(=O)N[C@@H](Cc1ccc2ccccc2c1)C(=O)N[C@@H](CCC(N)=O)C(N)=O)[C@@H](C)OP(=O)(O)O
B4: peptide 10 (peptide)
peptide: Ac-K(Biotin)AA[2Thi][pT][NMeA][2Nal]Q-NH2
SMILES: CC(=O)N[C@@H](CCCCNC(=O)CCCC[C@@H]1SC[C@@H]2NC(=O)N[C@@H]21)C(=O)N[C@@H](C)C(=O)N[C@@H](C)C(=O)N[C@@H](Cc1cccs1)C(=O)N[C@H](C(=O)N(C)[C@@H](C)C(=O)N[C@@H](Cc1ccc2ccccc2c1)C(=O)N[C@@H](CCC(N)=O)C(N)=O)[C@@H](C)OP(=O)(O)O
B5: peptide 12 (peptide)
peptide: Ac-K(Biotin)AAF[pT][NMeA][Bta]Q-NH2
SMILES: CC(=O)N[C@@H](CCCCNC(=O)CCCC[C@@H]1SC[C@@H]2NC(=O)N[C@@H]21)C(=O)N[C@@H](C)C(=O)N[C@@H](C)C(=O)N[C@@H](Cc1ccccc1)C(=O)N[C@H](C(=O)N(C)[C@@H](C)C(=O)N[C@@H](Cc1csc2ccccc12)C(=O)N[C@@H](CCC(N)=O)C(N)=O)[C@@H](C)OP(=O)(O)O

Target: full-length hPin1 (human, UniProt Q13526 1-163)
Sequence (Q13526 whole entry): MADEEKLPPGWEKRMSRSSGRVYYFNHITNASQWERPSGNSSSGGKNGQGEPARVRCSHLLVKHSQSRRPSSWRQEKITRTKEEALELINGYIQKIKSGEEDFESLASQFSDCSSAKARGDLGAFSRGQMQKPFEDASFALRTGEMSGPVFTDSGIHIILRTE
Assay: cell-based or functional assay
Details: not given

Row | Molecule | IC50(µM), blockade of the PPIase activity of hPin1, protease free PPIase assay [µM]
1 | Ac-K(Biotin)AA[Phe(4-tBu)][pT][NMeA][2Nal]Q-NH2 [peptide 9] | 10
2 | Ac-K(Biotin)AA[2Nal][pT]P[Cha]Q-NH2 [peptide 8] | > 50
3 | B1 | 8
4 | Ac-K(Biotin)AA[Bip][pT]P[Bta]Q-NH2 [peptide 5] | 15
5 | B2 | 25
6 | B3 | 30
7 | B4 | 15
8 | Ac-K(Biotin)AA[Bta][pT]P[Cha]Q-NH2 [peptide 3] | > 50
9 | B5 | 20
10 | Ac-K(Biotin)AA[2Nal][pT]P[Tle]Q-NH2 [peptide 7] | > 50
11 | Ac-K(Biotin)AA[2Thi][pT]P[Bip]Q-NH2 [peptide 2] | 22
12 | Ac-K(Biotin)AA[Cha][pT][NMeA][2Nal]Q-NH2 [peptide 11] | 7
13 | Ac-K(Biotin)AA[Bip][pT]P[2Nal]Q-NH2 [peptide 6] | 18

Target: T1, hPin1 (Homo sapiens, UniProt Q13526)
T1 construct: The protease free assay ensures reliable measurement of IC50 values for the full-length hPin1
T1 sequence (Q13526 whole entry): as above
Assay: Protease free PPIase assay, hPin1
Type: biochemical
Details: blockade of PPIase activity of full-length hPin1, protease free assay, 10° C.; read-out: IC50
Description: Protein concentrations were determined using the extinction coefficient ε280=21030 M^−1 cm^−1 for hPin1, ε280=6979 M^−1 cm^−1 for the hPin1 PPIase domain, ε280=21030 M^−1 cm^−1 for XlPin1, ε280=8250 M^−1 cm^−1 for hPar14 and ε280=8250 M^−1 cm^−1 for hCyp18. Extinction coefficients were calculated using the program ProtParam Tool at ExPASy (SIB, Switzerland). All measurements were done at 10° C. in 35 mM Hepes buffer (pH 7.8).
The determination of the kinetic constants of the cis/trans isomerization within the protease-free system was performed using fluorescence based measurements (Garcia-Echeverria et al., 1993, Zhang et al., 2002) on a Hitachi F-3010 fluorescence spectrophotometer with H-Abz-Ala-Glu-Pro-Phe-NH-Np (SEQ ID NO: 2) as substrate. The substrate stock solution was 12 mM in anhydrous trifluoroethanol/0.55 M LiCl. Measurements were initiated by addition of the substrate (final concentration 10 μM) to a pre-incubated (15 min) mixture of 8.8 nM hPin1 or 7.1 nM XlPin1 and respective inhibitory peptide of desired concentrations. The excitation wavelength was 320 nm (spectral bandwidth 3 nm) and emission was detected at 420 nm (spectral bandwidth 10 nm).
Data analysis was performed by single-exponential nonlinear regression using the SigmaPlot Scientific Graphing System Version 5.00 (Jandel Corp.). The apparent first order rate constant kobs was computed by nonlinear regression of the progress curve obtained for the respective measurement. The rate constant k0 was determined in the absence of Pin1. The first order rate constants kenz was calculated from the equation kenz=kobs−k0. IC50 and Ki values were determined by fitting the first order rate constants kenz against the concentration of the inhibitory peptide by nonlinear regression according to Schutkowski et al., 1995 or a model for tight binding inhibitors (Morrison, 1969).
The protease free assay ensures reliable measurement of IC50 values for the full-length hPin1.

Row | Molecule | IC50 [µM]
14 | CC(=O)N[C@@H](CCCCNC(=O)CCCC[C@@H]1SC[C@@H]2NC(=O)N[C@@H]21)C(=O)N[C@@H](C)C(=O)N[C@@H](C)C(=O)N[C@@H](Cc1csc2ccccc12)C(=O)N[C@H](C(=O)N1CCC[C@H]1C(=O)N[C@@H](Cc1ccc2ccccc2c1)C(=O)N[C@@H](CCC(N)=O)C(N)=O)[C@@H](C)OP(=O)(O)O [Peptide 4] (Ac-K(Biotin)AA[Bta][pT]P[2Nal]Q-NH2) | 20
15 | CC(=O)N[C@@H](CCCCNC(=O)CCCC[C@@H]1SC[C@@H]2NC(=O)N[C@@H]21)C(=O)N[C@@H](C)C(=O)N[C@@H](C)C(=O)N[C@@H](Cc1ccccc1)C(=O)N[C@H](C(=O)N(C)[C@@H](C)C(=O)N[C@@H](Cc1csc2ccccc12)C(=O)N[C@@H](CCC(N)=O)C(N)=O)[C@@H](C)OP(=O)(O)O [Peptide 12] (Ac-K(Biotin)AAF[pT][NMeA][Bta]Q-NH2) | 20
16 | CC(=O)N[C@@H](CCCCNC(=O)CCCC[C@@H]1SC[C@@H]2NC(=O)N[C@@H]21)C(=O)N[C@@H](C)C(=O)N[C@@H](C)C(=O)N[C@@H](Cc1cccs1)C(=O)N[C@H](C(=O)N(C)[C@@H](C)C(=O)N[C@@H](Cc1ccc2ccccc2c1)C(=O)N[C@@H](CCC(N)=O)C(N)=O)[C@@H](C)OP(=O)(O)O [Peptide 10] (Ac-K(Biotin)AA[2Thi][pT][NMeA][2Nal]Q-NH2) | 15
17 | Ac-Lys(Nε-biotinoyl)-Ala-Ala-Xaa-Thr(PO3H2)-Yaa-Zaa-Gln-NH2 with Xaa Bth, Yaa Pro, Zaa Cha [Peptide 3] | > 50
18 | CC(=O)N[C@@H](CCCCNC(=O)CCCC[C@@H]1SC[C@@H]2NC(=O)N[C@@H]21)C(=O)N[C@@H](C)C(=O)N[C@@H](C)C(=O)N[C@@H](Cc1ccc2ccccc2c1)C(=O)N[C@H](C(=O)N1CCC[C@H]1C(=O)N[C@H](C(=O)N[C@@H](CCC(N)=O)C(N)=O)C(C)(C)C)[C@@H](C)OP(=O)(O)O [Peptide 7] (Ac-K(Biotin)AA[2Nal][pT]P[Tle]Q-NH2) | > 50
19 | CC(=O)N[C@@H](CCCCNC(=O)CCCC[C@@H]1SC[C@@H]2NC(=O)N[C@@H]21)C(=O)N[C@@H](C)C(=O)N[C@@H](C)C(=O)N[C@@H](Cc1ccc2ccccc2c1)C(=O)N[C@H](C(=O)N1CCC[C@H]1C(=O)N[C@@H](CC1CCCCC1)C(=O)N[C@@H](CCC(N)=O)C(N)=O)[C@@H](C)OP(=O)(O)O [Peptide 8] (Ac-K(Biotin)AA[2Nal][pT]P[Cha]Q-NH2) | > 50
20 | CC(=O)N[C@@H](CCCCNC(=O)CCCC[C@@H]1SC[C@@H]2NC(=O)N[C@@H]21)C(=O)N[C@@H](C)C(=O)N[C@@H](C)C(=O)N[C@@H](Cc1ccc(-c2ccccc2)cc1)C(=O)N[C@H](C(=O)N1CCC[C@H]1C(=O)N[C@@H](Cc1csc2ccccc12)C(=O)N[C@@H](CCC(N)=O)C(N)=O)[C@@H](C)OP(=O)(O)O [Peptide 5] (Ac-K(Biotin)AA[Bip][pT]P[Bta]Q-NH2) | 15

Same assay, conditions: compared with peptide 15

Row | Molecule | fold decrease of inhibition, prolyl residue at Yaa versus peptide 15 [fold]
21 | CC(=O)N[C@@H](CCCCNC(=O)CCCC[C@@H]1SC[C@@H]2NC(=O)N[C@@H]21)C(=O)N[C@@H](C)C(=O)N[C@@H](C)C(=O)N[C@@H](Cc1csc2ccccc12)C(=O)N[C@H](C(=O)N1CCC[C@H]1C(=O)N[C@@H](Cc1ccc2ccccc2c1)C(=O)N[C@@H](CCC(N)=O)C(N)=O)[C@@H](C)OP(=O)(O)O [Peptide 4] (Ac-K(Biotin)AA[Bta][pT]P[2Nal]Q-NH2) | 100
